The labels stand for the following.
B1: hu1H9v1 (antibody, V domains shown)
VH: EVQLVESGGGLVKPGGSLRLSCAASGFTFSGYPMSWVRQAPGKGLEWVSTISTGARHTYYPDSVKGRFTISRDNAKNSLYLQMNSLRAEDTAVYYCARHEGLRRGKYHSIMDYWGQGTLVTVSS
VL: DIVLTQSPASLAVSPGQRATITCRASESVDYDGDSFINWYQQKPGQPPKLLIYAASNKDTGVPARFSGSGSGTDFTLTINPVEAEDTANYYCHQSNEDPYMFGQGTKLEIK
notes: Humanized 1H9; captured by anti-human Fc in SPR
B2: hu1H9v5 (antibody, V domains shown)
VH: EVQLVESGGGLVKPGGSLRLSCAASGFTFSGYPMSWVRQAPGKGLEWVSTISTGARHTYYPDSVKGRFTISRDNAKNSLYLQMNSLRAEDTAVYYCARHEGLRRGKYHSIMDYWGQGTLVTVSS
VL: DIVMTQSPDSLAVSLGERATINCKSSQSIDYDGDSFLNWYQQKPGQPPKLLIYAASNRESGVPDRFSGSGSGTDFTLTISSLQAEDVAVYYCQQSNEDPYVFGQGTKLEIK
notes: as for B1
B3: hu1H9v4 (antibody, V domains shown)
VH: EVQLVESGGGLVKPGGSLRLSCAASGFTFSGYPMSWVRQAPGKGLEWVSTISTGARHTYYPDSVKGRFTISRDNAKNSLYLQMNSLRAEDTAVYYCARHEGLRRGKYHSIMDYWGQGTLVTVSS
VL: DIQMTQSPSSLSASVGDRVTITCRASQSIDYDGDSFLNWYQQKPGKAPKLLIYAASNLQSGVPSRFSGSGSGTDFTLTISSLQPEDFATYYCQQSNEDPYVFGQGTKLEIK
notes: as for B1
B4: hu1H9v2 (antibody, V domains shown)
VH: EVQLVESGGGLVKPGGSLRLSCAASGFTFSGYPMSWVRQAPGKGLEWVSTISTGARHTYYPDSVKGRFTISRDNAKNSLYLQMNSLRAEDTAVYYCARHEGLRRGKYHSIMDYWGQGTLVTVSS
VL: DIVLTQSPASLAVSPGQRATITCRASESVDYDGDSFINWYQQKPGQPPKLLIYAASNKDTGVPARFSGSGSGTDFTLTINPVEAEDTANYYCHQSNEDPYLFGQGTKLEIK
notes: as for B1
B5: hu1H9v3 (antibody, V domains shown)
VH: EVQLVESGGGLVKPGGSLRLSCAASGFTFSGYPMSWVRQAPGKGLEWVSTISTGARHTYYPDSVKGRFTISRDNAKNSLYLQMNSLRAEDTAVYYCARHEGLRRGKYHSIMDYWGQGTLVTVSS
VL: DIVLTQSPASLAVSPGQRATITCRASESVDYDGDSFINWYQQKPGQPPKLLIYAASNKDTGVPARFSGSGSGTDFTLTINPVEAEDTANYYCHQSNEDPYVFGQGTKLEIK
notes: Humanized 1H9
B6: hu9C12v1 (antibody, V domains shown)
VH: EVQLVESGGGLVKPGGSLRLSCAASGFTFSSYPMSWVRQAPGKGLEWVSTISTGGTYTYYPDSVKGRFTISRDNAKNSLYLQMNSLRAEDTAVYYCARQGPIYYGNYYYAMDYWGQGTTVTVSS
VL: DIVMTQSPLSLPVTLGQPASISCRSSQSLVHSDGNTYLHWYQQRPGQSPKLLIYKVSNRFSGVPDRFSGSGSGTDFTLKISRVEAEDVGVYYCSQSTHVPYTFGGGTKVEIK
notes: Humanized 9C12; captured by anti-human Fc in SPR
B7: hu9C12v5 (antibody, V domains shown)
VH: EVQLVESGGGLVKPGGSLRLSCAASGFTFSSYPMSWVRQAPEKGLEWVSTISTGGTYTYYPDSVKGRFTISRDNAKNSLYLQMNSLRAEDTAVYYCARQGPILRKNYYYGMDVWGQGTTVTVSS
VL: DVVMTQSPLSLPVTLGDPASISCRSSQSLVDGQDGTYLHWYQQRPGQSPKLLIYKVSNRFDGVPDRFSGSGSGTDFTLKISRVEAEDVGVYYCSQSTHVPYTFGQGTKLEIK
notes: Humanized 9C12 variant; captured by anti-human Fc in SPR
B8: ch9C12 (antibody, V domains shown)
VH: EVKLVESGGGLVKPGGSLKLSCAASGFTFSSYPMSWVRQTPEKRLEWVATISTGGTYTYYPDSVKGRFTISRDNAKNTLYLQMSSLRSEDTAMYYCARQGPIYYGNYYYAMDYWGQGTSVTVSS
VL: DIVMTQPPLSLPVSLGDQASISCRSSQSLVHSDGNTYLHWYLQRPGQSPKLLIYKVSNRFSGVPDRFSGSGSGTDFTLKISRVEAEDLGVYFCSQSTHVPYTFGGGTKLEIK
notes: also called chimeric 9C12
B9: ch1H9 (antibody, V domains shown)
VH: EVKLMESGGDLVKPGGSLKLSCVASGFTFSGYPMSWVRQTPEKRLEWVATISTGARHTYYPDSVKGRFTISRDNAKNTLYLQMSSLRSEDTAMYYCARHEGLRRGKYHCIMDYWGQGTSVTVSS
VL: DILLTQSPASLAVSLGQRATISCKASQSIDYDGDSFLNWYQQKPGQPPKLLIYAASNLESGIPARFSGSGSGTDFTLNIHPVEEEDAATYYCHQCNEDPYMFGGGTKLEIR
notes: also called chimeric 1H9
B10: ch23H8 (antibody, V domains shown)
VH: EVQLQESGGGLVKPGGSLKLSCAASGFTFNSYAMSWVRQTPEKRLEWVATISTGGSHTYYPDSVKGRFTISRDNAKNTLYLQMSSLRSEDTAMYYCARHGYLLYDGYYEWYFDVWGAGTTVTVSS
VL: DIVLTQSPASLAVSLGQRATISCKASQSVDYDGHSFLNWYQQKPGQPPKLLIYAASNLESGLPARFSGSGSGTDFTLNIHPVEEEDAATYYCQQSTEDPPYTFGGGTKLEIK
notes: also called chimeric 23H8
B11: hu23H8v1 (antibody, V domains shown)
VH: EVQLVESGGGLVKPGGSLRLSCAASGFTFNSYAMSWVRQAPGKGLEWVSTISTGGSHTYYPDSVKGRFTISRDNAKNSLYLQMNSLRAEDTAVYYCARHGYLLYDGYYEWYFDYWGQGTLVTVSS
VL: DIVLTQSPASLAVSPGQRATITCRASESVDYDGHSFINWYQQKPGQPPKLLIYAASNKDTGVPARFSGSGSGTDFTLTINPVEAEDTANYYCQQSTEDPPYTFGQGTKLEIK
notes: Humanized 23H8; captured by anti-human Fc in SPR
B12: hu23H8v2 (antibody, V domains shown)
VH: EVQLVESGGGLVKPGGSLRLSCAASGFTFNSYAMSWVRQAPGKGLEWVSTISTGGSHTYYPDSVKGRFTISRDNAKNSLYLQMNSLRAEDTAVYYCARHGYLLYDGYYEWYFDYWGQGTLVTVSS
VL: DIQMTQSPSSLSASVGDRVTITCRASQSVDYDGHSFLNWYQQKPGKAPKLLIYAASNLQSGVPSRFSGSGSGTDFTLTISSLQPEDFATYYCQQSTEDPPYTFGQGTKLEIK
notes: as for B11
B13: hu23H8v3 (antibody, V domains shown)
VH: EVQLVESGGGLVKPGGSLRLSCAASGFTFNSYAMSWVRQAPGKGLEWVSTISTGGSHTYYPDSVKGRFTISRDNAKNSLYLQMNSLRAEDTAVYYCARHGYLLYDGYYEWYFDYWGQGTLVTVSS
VL: DIVMTQSPDSLAVSLGERATINCKSSQSVDYDGHSFLNWYQQKPGQPPKLLIYAASNRESGVPDRFSGSGSGTDFTLTISSLQAEDVAVYYCQQSTEDPPYTFGQGTKLEIK
notes: as for B11
B14: hu23H8v6 (antibody, V domains shown)
VH: EVQLVESGGGLVKPGGSLRLSCAASGFTFSSYAMSWVRQAPGKGLEWVSTISTGGSHTYYPESVKGRFTISRDNAKNSLYLQMNSLRAEDTAVYYCARHGYLLYEGYYEWYFDYWGQGTLVTVSS
VL: DIVMTQSPDSLAVSLGERATINCKSSQSVDYEGHSFLNWYQQKPGQPPKLLIYAASNRESGVPDRFSGSGSGTDFTLTISSLQAEDVAVYYCQQSTENPPYTFGQGTKLEIK
notes: Humanized 23H8 variant
B15: hu23H8v4 (antibody, V domains shown)
VH: EVQLVESGGGLVKPGGSLRLSCAASGFTFSSYAMSWVRQAPGKGLEWVSTISTGGSHTYYPESVKGRFTISRDNAKNSLYLQMNSLRAEDTAVYYCARHGYLLYEGYYEWYFDYWGQGTLVTVSS
VL: DIVLTQSPASLAVSPGQRATITCRASESVDYDGHSFINWYQQKPGQPPKLLIYAASNKDTGVPARFSGSGSGTDFTLTINPVEAEDTANYYCQQSTEDPPYTFGQGTKLEIK
notes: Humanized 23H8 variant; captured by anti-human Fc in SPR
B16: hu23H8v5 (antibody, V domains shown)
VH: EVQLVESGGGLVKPGGSLRLSCAASGFTFSSYAMSWVRQAPGKGLEWVSTISTGGSHTYYPESVKGRFTISRDNAKNSLYLQMNSLRAEDTAVYYCARHGYLLYEGYYEWYFDYWGQGTLVTVSS
VL: DIQMTQSPSSLSASVGDRVTITCRASQSVDYEGHSFLNWYQQKPGKAPKLLIYAASNLQSGVPSRFSGSGSGTDFTLTISSLQPEDFATYYCQQSTENPPYTFGQGTKLEIK
notes: Humanized 23H8 variant

As a reminder, the Kd is a measure of binding affinity in units of concentration. High values mean weaker binding, low ones tighter binding. As a reminder, the koff is the rate constant with which the complex falls apart. Read a high koff as fast dissociation. As usually defined, the kon is the second-order rate constant of association.

The target of the first assay is T1, hAREG-EGFd-mFc (human; mouse, UniProt P15514 142-184).
T1 construct: Expressed in 293F cells; not shown: Fc fragment of mouse IgG2a
T1 chain: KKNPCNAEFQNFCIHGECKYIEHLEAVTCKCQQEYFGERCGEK
Description: SPR, Biacore T200; mAb captured on anti-human Fc chip, antigen in solution. As for the experimental part:
(§1) To evaluate affinities of different mouse hybridoma mAbs or their humanized and engineered variants, SPR measurement was performed using Biacore T200 instrument. mAbs were captured on anti-human Fc CM5 biosensor chip surface, hAREG-EGFd-mFc, mAREG-EGFd-mFc or hAREG-98aa (purchased from PeproTech, cat #100-55B) in serial dilutions were injected over antibody-bound surface, followed by a dissociation phase. Association rates (Ka) and dissociation rates (Kd) were calculated using the one-to-one Langmuir binding model (BIA Evaluation Software, GE Life Sciences). The equilibrium dissociation constant (KD) was calculated as the ratio kd/ka.
B1: binding was put at a Kd of 0.799 nM, the koff was determined as 0.000233 s⁻¹ and the on-rate constant (kon) came out at 291000 M⁻¹ s⁻¹.
Regarding B2, the Kd came out at 0.811 nM, the koff is 0.000206 s⁻¹ and the kon was found to be 254000 M⁻¹ s⁻¹.
Take B3: the Kd was 0.758 nM, the koff amounted to 0.000184 s⁻¹ and the kon stood at 243000 M⁻¹ s⁻¹.
For B4, in that order: 0.762 nM, 0.000229 s⁻¹ and 301000 M⁻¹ s⁻¹.
For B5, in that order: 0.969 nM, 0.000259 s⁻¹ and 267000 M⁻¹ s⁻¹.
The molecule B6 had a Kd of 1 nM, a dissociation rate constant (koff) of 0.000572 s⁻¹ and a kon of 570000 M⁻¹ s⁻¹.
For B7, in that order: 0.852 nM, 0.000411 s⁻¹ and 483000 M⁻¹ s⁻¹.
On the same counts, the results for B8 are 1.71 nM, 0.001 s⁻¹ and 587000 M⁻¹ s⁻¹.
For B9, the Kd worked out at 1.31 nM.
Consider B10, for which binding was characterised by a dissociation constant (Kd) of 0.75 nM, the koff was determined as 0.000313 s⁻¹ and the association rate constant (kon) came out at 418000 M⁻¹ s⁻¹.
In turn, B11 showed a Kd of 0.205 nM, a koff of 0.000214 s⁻¹ and an on-rate constant (kon) of 1.05e+06 M⁻¹ s⁻¹.
In turn, B12 returned a Kd of 0.244 nM, a koff of 0.000249 s⁻¹ and a kon of 1.02e+06 M⁻¹ s⁻¹.
As for B13, binding was characterised by a dissociation constant (Kd) of 0.178 nM, the koff was 0.000213 s⁻¹ and the kon was 1.2e+06 M⁻¹ s⁻¹.
On the same counts, the results for B14 are 0.309 nM, 0.000246 s⁻¹ and 803000 M⁻¹ s⁻¹.
With B15, the Kd is 0.336 nM, the koff worked out at 0.000276 s⁻¹ and the kon was found to be 821000 M⁻¹ s⁻¹.
On the same counts, the results for B16 are 0.565 nM, 0.000348 s⁻¹ and 628000 M⁻¹ s⁻¹.

Another assay has as its target T2, hAREG-98aa (human, UniProt P15514 101-198).
T2 construct: Bought protein
T2 sequence (looked up): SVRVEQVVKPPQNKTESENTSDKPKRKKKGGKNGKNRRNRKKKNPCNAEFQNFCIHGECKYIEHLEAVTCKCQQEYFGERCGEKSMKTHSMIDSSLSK
Described as above. As to the method: as §1
Molecule B7 gave a Kd of 0.349 nM, a koff of 0.00283 s⁻¹ and a kon of 8.11e+06 M⁻¹ s⁻¹.
With B14, the affinity, expressed as Kd, was 0.537 nM and the association rate constant (kon) turned out to be 1.11e+06 M⁻¹ s⁻¹.

Source of the values: patent publication US20230041071A1 (NATIONAL INSTITUTE OF BIOLOGICAL SCIENCES BEIJING, published 2023).
